We go through one molecule from PMC10547376.

The test has as its target actively translating polysomes (cytosolic ribosomes) (human (endogenous in HeLa, HT29)). In words: co-sedimentation.

B1: TRAP1 (endogenous) (natural protein)
chain: STQTAEDKEEPLHSIISSTESVQGSTSKHEFQAETKKLLDIVARSLYSEKEVFIRELISNASDALEKLRHKLVSDGQALPEMEIHLQTNAEKGTITIQDTGIGMTQEELVSNLGTIARSGSKAFLDALQNQAEASSKIIGQFGVGFYSAFMVADRVEVYSRSAAPGSLGYQWLSDGSGVFEIAEASGVRTGTKIIIHLKSDCKEFSSEARVRDVVTKYSNFVSFPLYLNGRRMNTLQAIWMMDPKDVREWQHEEFYRYVAQAHDKPRYTLHYKTDAPLNIRSIFYVPDMKPSMFDVSRELGSSVALYSRKVLIQTKATDILPKWLRFIRGVVDSEDIPLNLSRELLQESALIRKLRDVLQQRLIKFFIDQSKKDAEKYAKFFEDYGLFMREGIVTATEQEVKEDIAKLLRYESSALPSGQLTSLSEYASRMRAGTRNIYYLCAPNRHLAEHSPYYEAMKKKDTEVLFCFEQFDELTLLHLREFDKKKLISVETDIVVDHYKEEKFEDRSPAAECLSEKETEELMAWMRNVLGSRVTNVKVTLRLDTHPAMVTVLEMGAARHFLRMQQLAKTQEERAQLLQPTLEINPRHALIKKLNQLRASEPGLAQLLVDQIYENAMIAAGLVDDPRAMVGRLNELLVKALERH
B1 gave a percent of total TRAP1 in the polysomal fractions above 0.7%.
